T1: Factor VIIIa (recombinant FVIII, Kogenate FS, activated with alpha-thrombin) (UniProt P00451 20-2351)
T1 construct: also called FVIIIa
T1 sequence (looked up): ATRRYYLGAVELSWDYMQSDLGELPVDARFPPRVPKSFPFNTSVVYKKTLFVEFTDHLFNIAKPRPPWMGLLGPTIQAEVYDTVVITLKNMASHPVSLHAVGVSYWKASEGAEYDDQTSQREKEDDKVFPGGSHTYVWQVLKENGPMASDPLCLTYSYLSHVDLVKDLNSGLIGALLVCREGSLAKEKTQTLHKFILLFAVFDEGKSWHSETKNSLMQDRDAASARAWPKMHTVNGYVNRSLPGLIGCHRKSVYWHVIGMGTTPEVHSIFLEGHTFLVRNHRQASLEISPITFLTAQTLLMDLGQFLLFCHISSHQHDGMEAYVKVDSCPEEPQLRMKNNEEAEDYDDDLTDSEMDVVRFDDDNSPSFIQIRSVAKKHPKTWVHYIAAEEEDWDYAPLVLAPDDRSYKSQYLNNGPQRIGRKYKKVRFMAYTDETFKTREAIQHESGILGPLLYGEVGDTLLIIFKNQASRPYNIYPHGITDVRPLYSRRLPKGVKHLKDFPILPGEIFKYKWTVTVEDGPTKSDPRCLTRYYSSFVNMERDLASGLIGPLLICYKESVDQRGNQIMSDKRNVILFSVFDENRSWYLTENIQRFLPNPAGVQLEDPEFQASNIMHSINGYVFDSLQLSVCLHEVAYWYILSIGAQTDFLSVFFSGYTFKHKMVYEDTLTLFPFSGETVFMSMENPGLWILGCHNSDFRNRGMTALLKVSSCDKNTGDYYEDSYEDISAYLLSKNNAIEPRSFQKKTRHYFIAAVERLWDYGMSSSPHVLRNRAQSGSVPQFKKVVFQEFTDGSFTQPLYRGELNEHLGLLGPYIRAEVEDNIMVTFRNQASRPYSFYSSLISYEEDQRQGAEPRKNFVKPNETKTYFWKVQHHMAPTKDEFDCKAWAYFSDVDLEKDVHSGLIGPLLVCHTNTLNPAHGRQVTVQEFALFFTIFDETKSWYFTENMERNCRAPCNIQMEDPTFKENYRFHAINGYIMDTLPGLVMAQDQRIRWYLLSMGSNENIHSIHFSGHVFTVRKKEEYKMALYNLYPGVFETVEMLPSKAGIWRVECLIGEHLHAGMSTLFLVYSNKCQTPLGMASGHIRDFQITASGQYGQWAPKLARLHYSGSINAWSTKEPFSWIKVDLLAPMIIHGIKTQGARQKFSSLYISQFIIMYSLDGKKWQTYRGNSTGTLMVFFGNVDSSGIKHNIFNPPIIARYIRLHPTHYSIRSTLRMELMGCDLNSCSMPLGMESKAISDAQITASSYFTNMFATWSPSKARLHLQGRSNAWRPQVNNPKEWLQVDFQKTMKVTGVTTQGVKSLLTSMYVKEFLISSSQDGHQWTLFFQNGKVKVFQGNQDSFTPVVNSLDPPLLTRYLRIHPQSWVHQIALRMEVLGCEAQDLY


Legend:
[1] = target: T1, Factor VIIIa (recombinant FVIII, …); assay: ratio of KD-app of wild-type FIXa (Catalyst Biosciences WT, SEQ ID NO:3) to that of the variant, same Xase assay
Source text: The activity of alpha-thrombin was then quenched by the addition of a highly specific thrombin inhibitor, hirudin, prior to initiating the assay.

[2] = target: T1, Factor VIIIa (recombinant FVIII, …); assay: functional cofactor affinity KD-app: fluorogenic FX activation (Xase) assay, FVIIIa titrated, PC/PS vesicles, saturating FX
Procedure: Reactions were monitored in a SpectraMax fluorescence plate reader for 30 min at 37° C. A standard curve of free AMC served as the conversion factor for RFU to μM in the subsequent data analysis calculations using a dose range that covered 0 μM to 100 μM AMC.

[3] = target: T2, antithrombin III (plasma purified human AT-III), used as the AT-III/unfractionated heparin complex (human, UniProt P01008 33-464); assay: K0.5: AT-III/UFH titrated against FIXa, 10 s, residual cleavage of Mesyl-D-CHG-Gly-Arg-AMC
T2 construct: also called AT-III/UFH

Row | Binder | KD-WT/KD-mut [1] | Kd [2] [nM] | IC50 [3] [nM]
1 | FIXa-K228N/K247N/N249S/R318Y/R338E/T343R/E410N (enzyme, also called K63N/K82N/N84S/R150Y/R170E/T175R/E240N (chymotrypsin numbering)) chain 1: YNSGKLEEFVQGNLERECMEEKCSFEEAREVFENTERTTEFWKQYVDGDQCESNPCLNGGSCKDDINSYECWCPFGFEGKNCELDVTCNIKNGRCEQFCKNSADNKVVCSCTEGYRLAENQKSCEPAVPFPCGRVSVSQTSKLTR chain 2: VVGGEDAKPGQFPWQVVLNGKVDAFCGGSIVNEKWIVTAAHCVETGVNITVVAGEHNIEETEHTEQNRSVIRIIPHHNYNAAINKYNHDIALLELDEPLVLNSYVTPICIADKEYTNIFLKFGSGYVSGWGRVFHKGYSALVLQYLRVPLVDRATCLESTKFRIYNNMFCAGFHEGGRDSCQGDSGGPHVTEVEGTSFLTGIISWGEECAMKGKYGIYTKVSRYVNWIKNKTKLT | 12.2 | 7.8 | –
2 | FIXa-K247N/N249S/R338E/T343R/E410N (enzyme, also called K82N/N84S/R170E/T175R/E240N (chymotrypsin numbering)) chain 1: YNSGKLEEFVQGNLERECMEEKCSFEEAREVFENTERTTEFWKQYVDGDQCESNPCLNGGSCKDDINSYECWCPFGFEGKNCELDVTCNIKNGRCEQFCKNSADNKVVCSCTEGYRLAENQKSCEPAVPFPCGRVSVSQTSKLTR chain 2: VVGGEDAKPGQFPWQVVLNGKVDAFCGGSIVNEKWIVTAAHCVETGVKITVVAGEHNIEETEHTEQNRSVIRIIPHHNYNAAINKYNHDIALLELDEPLVLNSYVTPICIADKEYTNIFLKFGSGYVSGWGRVFHKGRSALVLQYLRVPLVDRATCLESTKFRIYNNMFCAGFHEGGRDSCQGDSGGPHVTEVEGTSFLTGIISWGEECAMKGKYGIYTKVSRYVNWIKNKTKLT | 6.8 | 14 | –
3 | FIXa-Y155F/K247N/N249S/R338E/E410N (enzyme) chain 1: YNSGKLEEFVQGNLERECMEEKCSFEEAREVFENTERTTEFWKQYVDGDQCESNPCLNGGSCKDDINSYECWCPFGFEGKNCELDVTCNIKNGRCEQFCKNSADNKVVCSCTEGYRLAENQKSCEPAVPFPCGRVSVSQTSKLTR chain 2: VVGGEDAKPGQFPWQVVLNGKVDAFCGGSIVNEKWIVTAAHCVETGVKITVVAGEHNIEETEHTEQNRSVIRIIPHHNYNAAINKYNHDIALLELDEPLVLNSYVTPICIADKEYTNIFLKFGSGYVSGWGRVFHKGRSALVLQYLRVPLVDRATCLESTKFTIYNNMFCAGFHEGGRDSCQGDSGGPHVTEVEGTSFLTGIISWGEECAMKGKYGIYTKVSRYVNWIKNKTKLT | 3.8 | 24.9 | –
4 | FIXa-Y155F/K247N/N249S/R318Y/R338E/T343R/E410N (enzyme) chain 1: YNSGKLEEFVQGNLERECMEEKCSFEEAREVFENTERTTEFWKQYVDGDQCESNPCLNGGSCKDDINSYECWCPFGFEGKNCELDVTCNIKNGRCEQFCKNSADNKVVCSCTEGYRLAENQKSCEPAVPFPCGRVSVSQTSKLTR chain 2: VVGGEDAKPGQFPWQVVLNGKVDAFCGGSIVNEKWIVTAAHCVETGVKITVVAGEHNIEETEHTEQNRSVIRIIPHHNYNAAINKYNHDIALLELDEPLVLNSYVTPICIADKEYTNIFLKFGSGYVSGWGRVFHKGYSALVLQYLRVPLVDRATCLESTKFRIYNNMFCAGFHEGGRDSCQGDSGGPHVTEVEGTSFLTGIISWGEECAMKGKYGIYTKVSRYVNWIKNKTKLT | 6.9 | 13.9 | –
5 | FIXa-Y155F/K247N/N249S/R318Y/R338E/T343R/R403E/E410N (enzyme) chain 1: YNSGKLEEFVQGNLERECMEEKCSFEEAREVFENTERTTEFWKQYVDGDQCESNPCLNGGSCKDDINSYECWCPFGFEGKNCELDVTCNIKNGRCEQFCKNSADNKVVCSCTEGYRLAENQKSCEPAVPFPCGRVSVSQTSKLTR chain 2: VVGGEDAKPGQFPWQVVLNGKVDAFCGGSIVNEKWIVTAAHCVETGVKITVVAGEHNIEETEHTEQNRSVIRIIPHHNYNAAINKYNHDIALLELDEPLVLNSYVTPICIADKEYTNIFLKFGSGYVSGWGRVFHKGYSALVLQYLRVPLVDRATCLESTKFRIYNNMFCAGFHEGGRDSCQGDSGGPHVTEVEGTSFLTGIISWGEECAMKGKYGIYTKVSEYVNWIKNKTKLT | 6.3 | 15.3 | –
6 | FIXa-R318Y/R338E/T343R/R403E/E410S (enzyme, also called R150Y/R170E/T175R/R233E/E240S (chymotrypsin numbering)) chain 1: YNSGKLEEFVQGNLERECMEEKCSFEEAREVFENTERTTEFWKQYVDGDQCESNPCLNGGSCKDDINSYECWCPFGFEGKNCELDVTCNIKNGRCEQFCKNSADNKVVCSCTEGYRLAENQKSCEPAVPFPCGRVSVSQTSKLTR chain 2: VVGGEDAKPGQFPWQVVLNGKVDAFCGGSIVNEKWIVTAAHCVETGVKITVVAGEHNIEETEHTEQKRNVIRIIPHHNYNAAINKYNHDIALLELDEPLVLNSYVTPICIADKEYTNIFLKFGSGYVSGWGRVFHKGYSALVLQYLRVPLVDRATCLESTKFRIYNNMFCAGFHEGGRDSCQGDSGGPHVTEVEGTSFLTGIISWGEECAMKGKYGIYTKVSEYVNWIKSKTKLT | 4.1 | 23.2 | –
7 | FIXa-R338E/R403E/E410N (enzyme, also called R170E/R233E/E240N (chymotrypsin numbering)) chain 1: YNSGKLEEFVQGNLERECMEEKCSFEEAREVFENTERTTEFWKQYVDGDQCESNPCLNGGSCKDDINSYECWCPFGFEGKNCELDVTCNIKNGRCEQFCKNSADNKVVCSCTEGYRLAENQKSCEPAVPFPCGRVSVSQTSKLTR chain 2: VVGGEDAKPGQFPWQVVLNGKVDAFCGGSIVNEKWIVTAAHCVETGVKITVVAGEHNIEETEHTEQKRNVIRIIPHHNYNAAINKYNHDIALLELDEPLVLNSYVTPICIADKEYTNIFLKFGSGYVSGWGRVFHKGRSALVLQYLRVPLVDRATCLESTKFTIYNNMFCAGFHEGGRDSCQGDSGGPHVTEVEGTSFLTGIISWGEECAMKGKYGIYTKVSEYVNWIKNKTKLT | – | – | 2350
8 | FIXa-K228N/R318Y/R338E/T343R/R403E/E410N (enzyme, also called K63N/R150Y/R170E/T175R/R233E/E240N (chymotrypsin numbering)) chain 1: YNSGKLEEFVQGNLERECMEEKCSFEEAREVFENTERTTEFWKQYVDGDQCESNPCLNGGSCKDDINSYECWCPFGFEGKNCELDVTCNIKNGRCEQFCKNSADNKVVCSCTEGYRLAENQKSCEPAVPFPCGRVSVSQTSKLTR chain 2: VVGGEDAKPGQFPWQVVLNGKVDAFCGGSIVNEKWIVTAAHCVETGVNITVVAGEHNIEETEHTEQKRNVIRIIPHHNYNAAINKYNHDIALLELDEPLVLNSYVTPICIADKEYTNIFLKFGSGYVSGWGRVFHKGYSALVLQYLRVPLVDRATCLESTKFRIYNNMFCAGFHEGGRDSCQGDSGGPHVTEVEGTSFLTGIISWGEECAMKGKYGIYTKVSEYVNWIKNKTKLT | 5.4 | 17.5 | –
9 | FIXa-R318Y/T343R/R403E/E410N (enzyme, also called R150Y/T175R/R233E/E240N (chymotrypsin numbering)) chain 1: YNSGKLEEFVQGNLERECMEEKCSFEEAREVFENTERTTEFWKQYVDGDQCESNPCLNGGSCKDDINSYECWCPFGFEGKNCELDVTCNIKNGRCEQFCKNSADNKVVCSCTEGYRLAENQKSCEPAVPFPCGRVSVSQTSKLTR chain 2: VVGGEDAKPGQFPWQVVLNGKVDAFCGGSIVNEKWIVTAAHCVETGVKITVVAGEHNIEETEHTEQKRNVIRIIPHHNYNAAINKYNHDIALLELDEPLVLNSYVTPICIADKEYTNIFLKFGSGYVSGWGRVFHKGYSALVLQYLRVPLVDRATCLRSTKFRIYNNMFCAGFHEGGRDSCQGDSGGPHVTEVEGTSFLTGIISWGEECAMKGKYGIYTKVSEYVNWIKNKTKLT | 1.1 | 84.1 | –
10 | FIXa-Y155F/K247N/N249S/R338E/T343R (enzyme) chain 1: YNSGKLEEFVQGNLERECMEEKCSFEEAREVFENTERTTEFWKQYVDGDQCESNPCLNGGSCKDDINSYECWCPFGFEGKNCELDVTCNIKNGRCEQFCKNSADNKVVCSCTEGYRLAENQKSCEPAVPFPCGRVSVSQTSKLTR chain 2: VVGGEDAKPGQFPWQVVLNGKVDAFCGGSIVNEKWIVTAAHCVETGVKITVVAGEHNIEETEHTEQNRSVIRIIPHHNYNAAINKYNHDIALLELDEPLVLNSYVTPICIADKEYTNIFLKFGSGYVSGWGRVFHKGRSALVLQYLRVPLVDRATCLESTKFRIYNNMFCAGFHEGGRDSCQGDSGGPHVTEVEGTSFLTGIISWGEECAMKGKYGIYTKVSRYVNWIKEKTKLT | 6.2 | 15.4 | –
